IntAct's records for PubMed 11438675

B1: Nibrin (Homo sapiens), O60934 (parent)
chain: MWKLLPAAGPAGGEPYRLLTGVEYVVGRKNCAILIENDQSISRNHAVLTANFSVTNLSQTDEIPVLTLKDNSKYGTFVNEEKMQNGFSRTLKSGDGITFGVFGSKFRIEYEPLVACSSCLDVSGKTALNQAILQLGGFTVNNWTEECTHLVMVSVKVTIKTICALICGRPIVKPEYFTEFLKAVESKKQPPQIESFYPPLDEPSIGSKNVDLSGRQERKQIFKGKTFIFLNAKQHKKLSSAVVFGGGEARLITEENEEEHNFFLAPGTCVVDTGITNSQTLIPDCQKKWIQSIMDMLQRQGLRPIPEAEIGLAVIFMTTKNYCDPQGHPSTGLKTTTPGPSLSQGVSVDEKLMPSAPVNTTTYVADTESEQADTWDLSERPKEIKVSKMEQKFRMLSQDAPTVKESCKTSSNNNSMVSNTLAKMRIPNYQLSPTKLPSINKSKDRASQQQQTNSIRNYFQPSTKKRERDEENQEMSSCKSARIETSCSLLEQTQPATPSLWKNKEQHLSENEPVDTNSDNNLFTDTDLKSIVKNSASKSHAAEKLRSNKKREMDDVAIEDEVLEQLFKDTKPELEIDVKVQKQEEDVNVRKRPRMDIETNDTFSDEAVPESSKISQENEIGKKRELKEDSLWSAKEISNNDKLQDDSEMLPKKLLLTEFRSLVIKNSTSRNPSGINDDYGQLKNFKKFKKVTYPGAGKLPHIIGGSDLIAHHARKNTELEEWLRQEMEVQNQHAKEESLADDLFRYNPYLKRRR

Variants of: B1
Details: with chk2_human CHEK2, O96017
Chain of chk2_human CHEK2, O96017 (O96017 whole entry): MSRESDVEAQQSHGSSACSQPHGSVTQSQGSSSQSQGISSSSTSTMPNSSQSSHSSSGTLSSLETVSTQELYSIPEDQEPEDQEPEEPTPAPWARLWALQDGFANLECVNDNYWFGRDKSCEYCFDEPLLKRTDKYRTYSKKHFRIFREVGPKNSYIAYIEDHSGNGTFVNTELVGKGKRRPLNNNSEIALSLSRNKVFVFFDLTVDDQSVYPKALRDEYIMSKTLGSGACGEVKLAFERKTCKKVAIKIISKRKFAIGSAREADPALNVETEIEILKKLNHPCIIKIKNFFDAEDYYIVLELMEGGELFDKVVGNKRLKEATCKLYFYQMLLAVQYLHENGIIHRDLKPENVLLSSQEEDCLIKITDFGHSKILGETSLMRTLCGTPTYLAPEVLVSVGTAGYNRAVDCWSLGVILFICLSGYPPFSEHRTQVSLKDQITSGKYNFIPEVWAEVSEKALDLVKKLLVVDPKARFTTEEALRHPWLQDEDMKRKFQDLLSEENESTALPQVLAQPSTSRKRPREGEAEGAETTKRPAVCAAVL

| Variant | effect of a mutation on the interaction |
| --- | --- |
| S343A | decreasing interaction |
